Measured values as given in the supplement of paper PMC6757056.
± gives the standard deviation of the averaged measurements.

B1: library; a variant is named by its letters at N, in order (parent)
chain: GCUGUCACCGAGAAACUGUGAAGUAUAUCUUAAACCUGGGCACUUAAAAGAUAUAUGGAGUUAGUAGUGCAACCUGCUCGGUCUGAUGAGUCCNNNNNNGGACGAAACAGC

Assays:
[1] = variants of: B1; assay: FACS-Seq fitted mean relative fluorescence mCherry/BFP without ligand (log10 relative fluorescence); HEK293T; ligand: cyclic di-GMP (c-di-GMP-II aptamer); higher = higher reporter protein expression; conditions: ligand present: no
Method in brief: (§1)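 HEK293T libraries were made by lentiviral transduction with a ribozyme-switch mCherry reporter and an EF1α-BFP marker, enriched, and incubated with or without ligand for 48 h. Cells were sorted into 6 mCherry/BFP bins, and each bin's genomic DNA was PCR-amplified, barcoded and run on MiSeq. Fluorescence was derived by normal fitting of the bin counts. The fitted log10(mCherry/BFP) mean was scaled to five spiked-in control ribozymes.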

[2] = variants of: B1; assay: normalized RNA/DNA level without ligand (relative to sTRSVctl = 100) (log10 (% of sTRSVctl)); HEK293T; ligand: cyclic di-GMP (c-di-GMP-II aptamer); higher = less ribozyme self-cleavage, higher mRNA level; conditions: reporter: mCherry (pCS4076), ligand present: no
Procedure: (§2)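 Hammerhead (sTRSV) ribozyme switch libraries with a ligand aptamer grafted on stem I and a randomized N4-6 loop II, cloned into the 3' UTR of mCherry and transiently transfected into HEK293T cells; RNA-Seq 72 h post transfection with ligand added 1 h before transfection; RNA read count / plasmid DNA read count normalized to the non-cleaving sTRSVctl (x100), log10; sequences with >100 DNA reads. FACS-Seq: lentiviral library sorted into 6 bins after 48 h ligand, log-normal fit mean of mCherry/BFP scaled to controls. Printed sequences are partial switch sequences.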

[3] = variants of: B1; assay: FACS-Seq fitted mean relative fluorescence mCherry/BFP with ligand (log10 relative fluorescence); HEK293T; ligand: cyclic di-GMP (c-di-GMP-II aptamer); ligand concentration (+) FACS-Seq: 1 mM; higher = higher reporter protein expression; conditions: ligand present: yes
Method in brief: as §1

[4] = variants of: B1; assay: normalized RNA/DNA level with ligand (relative to sTRSVctl = 100) (log10 (% of sTRSVctl)); HEK293T; ligand: cyclic di-GMP (c-di-GMP-II aptamer); ligand concentration (+) RNA-Seq: 1 mM; higher = less ribozyme self-cleavage, higher mRNA level; conditions: reporter: mCherry (pCS4076), ligand present: yes
Procedure: as §2

| Variant | FACS-Seq fitted mean (log10) [1] | normalized RNA/DNA level without ligand (log10) [2] | FACS-Seq fitted mean (log10) [3] | normalized RNA/DNA level with ligand (log10) [4] |
| --- | --- | --- | --- | --- |
| GCUGUCACCGAGAAACUGUGAAGUAUAUCUUAAACCUGGGCACUUAAAAGAUAUAUGGAGUUAGUAGUGCAACCUGCUCGGUCUGAUGAGUCCGAGAAGGGACGAAACAGC [GAGAAG] | -0.283 ± 0.064 | 1.71 ± 0.038 | -0.00672 ± 0.064 | 1.79 ± 0.12 |
| GCUGUCACCGAGAAACUGUGAAGUAUAUCUUAAACCUGGGCACUUAAAAGAUAUAUGGAGUUAGUAGUGCAACCUGCUCGGUCUGAUGAGUCCCAGACAGGACGAAACAGC [CAGACA] | -0.617 ± 0.0047 | 1.33 ± 0.059 | -0.36 ± 0.034 | 1.51 ± 0.13 |
| GCUGUCACCGAGAAACUGUGAAGUAUAUCUUAAACCUGGGCACUUAAAAGAUAUAUGGAGUUAGUAGUGCAACCUGCUCGGUCUGAUGAGUCCUAGAAAGGACGAAACAGC [UAGAAA] | -0.272 ± 0.026 | 1.58 ± 0.037 | -0.0653 ± 0.024 | 1.75 ± 0.18 |
| GCUGUCACCGAGAAACUGUGAAGUAUAUCUUAAACCUGGGCACUUAAAAGAUAUAUGGAGUUAGUAGUGCAACCUGCUCGGUCUGAUGAGUCCUAGAAUGGACGAAACAGC [UAGAAU] | -0.456 ± 0.092 | 1.56 ± 0.036 | -0.193 ± 0.12 | 1.75 ± 0.13 |
| GCUGUCACCGAGAAACUGUGAAGUAUAUCUUAAACCUGGGCACUUAAAAGAUAUAUGGAGUUAGUAGUGCAACCUGCUCGGUCUGAUGAGUCCAAGAACGGACGAAACAGC [AAGAAC] | -1.03 ± 0.025 | 1.55 ± 0.029 | -0.842 ± 0.066 | 1.73 ± 0.1 |
| GCUGUCACCGAGAAACUGUGAAGUAUAUCUUAAACCUGGGCACUUAAAAGAUAUAUGGAGUUAGUAGUGCAACCUGCUCGGUCUGAUGAGUCCAAGAAUGGACGAAACAGC [AAGAAU] | -0.565 ± 0.046 | 1.54 ± 0.062 | -0.225 ± 0.05 | 1.74 ± 0.073 |
| GCUGUCACCGAGAAACUGUGAAGUAUAUCUUAAACCUGGGCACUUAAAAGAUAUAUGGAGUUAGUAGUGCAACCUGCUCGGUCUGAUGAGUCCAAGAAAGGACGAAACAGC [AAGAAA] | -0.319 ± 0.062 | 1.38 ± 0.11 | -0.0342 ± 0.062 | 1.56 ± 0.035 |
